The values that follow come from US20070178531A1 (BIOCHECK, published 2007).

Holding throughout (experiment): ELISA, Ab 0 µg/ml (blank)
One assay addresses T1, Human Id1: Histidine (human, UniProt P41134 1-155, limits assumed).
T1 construct: Fusion protein made in E. coli from vector pGW07; also called h-Id1: his; not shown: His tag
T1 sequence (looked up): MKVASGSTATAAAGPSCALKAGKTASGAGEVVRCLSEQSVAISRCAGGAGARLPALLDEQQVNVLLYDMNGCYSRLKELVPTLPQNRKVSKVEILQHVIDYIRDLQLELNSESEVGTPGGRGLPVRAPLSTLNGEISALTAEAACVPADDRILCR

The next assay concerns the target T2, Mouse Id3: Histidine (mouse, UniProt P41133 1-119).
T2 construct: Fusion protein made in E. coli from vector pGW07; also called m-Id3: His; Mouse Id3 (coated wells); not shown: His tag
T2 sequence: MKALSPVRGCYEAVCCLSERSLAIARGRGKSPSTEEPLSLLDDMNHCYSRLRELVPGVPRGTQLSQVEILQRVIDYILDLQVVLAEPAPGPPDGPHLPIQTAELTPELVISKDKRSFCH

Another assay concerns the target T3, Human Id3: Histidine (human, UniProt Q02535 1-119 at identity 1.00)).
T3 construct: Fusion protein made in E. coli from vector pGW07; also called h-Id3: His; Human Id3 (coated wells); not shown: His tag
T3 chain: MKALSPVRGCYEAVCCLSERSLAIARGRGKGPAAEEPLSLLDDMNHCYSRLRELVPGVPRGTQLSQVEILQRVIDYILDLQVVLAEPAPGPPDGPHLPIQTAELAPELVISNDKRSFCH

In another assay the target is T4, Mouse Id1: Histidine (mouse, UniProt P20067-2 1-148, limits assumed).
T4 construct: Fusion protein made in E. coli from vector pGW07; also called m-Id1-His; not shown: His tag
T4 sequence (looked up): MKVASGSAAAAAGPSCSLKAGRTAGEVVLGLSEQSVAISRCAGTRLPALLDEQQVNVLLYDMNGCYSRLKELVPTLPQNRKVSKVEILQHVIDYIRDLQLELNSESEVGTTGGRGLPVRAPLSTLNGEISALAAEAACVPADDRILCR

B1: rabbit monoclonal anti-mouse/human Id3, clone #BCH-4/#6-1 (antibody, V domains shown)
VH: QSVEESGGRLVTPGTPLTLTCTASGFSLSNVYIHWVRQAPGKGLEWIGYISDGDTARYATWAKGRFTISKTSSTTVNLKMTSLTTEDTATYFCARQGFNIWGPGTLVTVSL
VL: AVLTQTPSPVSAAVGGTVSISCQSSQSVWNNNWLSWFQQKPGQPPKLLIYETSKLESGVPSRFKGSGSGTQFTLTISDVQCDDAATYYCLGGYWTTSDNNVFGGGTEVVVK
notes: Rabbit IgG from a rabbit hybridoma; also called m/h Id3 MoAb 6-1
For B1, the A450 turned out to be 0.058 A450 in the assay with Human Id1: Histidine, 0.048 A450 in the assay with Mouse Id3: Histidine, 0.047 A450 with Human Id3: Histidine and 0.061 A450 with Mouse Id1: Histidine.
